Test [1] concerns the target bovine adenylyl cyclase AC8, purified, tag-free (bovine) (UniProt E1BQ12).
The target is the same in test [2]. The source holds these as a separate data set.
For test [3], the target named is bovine adenylyl cyclase AC8, purified, tag-free (bovine, UniProt E1BQ12 1-1253). Description: cell-based or functional assay.

With “Calmodulin (from bovine testes, Sigma-Aldrich P1431) (from UniProt P62157 1-149) (natural protein)”, in test [1], the activation of AC8 adenylyl cyclase activity (cAMP accumulation) by CaM in the absence of CaCl2, EC50 amounted to 86.6 nM and the activation of AC8 adenylyl cyclase activity (cAMP accumulation) by CaM in the presence of CaCl2, EC50 worked out at 4.1 nM.

Turning to “G protein beta gamma subunit (Gβ1γ2) (from UniProt P62871 1-340; P63212 1-71) (complex)”, the inhibition of AC8 adenylyl cyclase activity (cAMP accumulation) by Gβγ, IC50 in test [2] was 400 nM.

B1: bovine G protein αs subunit, GTPγS-activated (natural protein, UniProt P04896-1 1-394, looked up)
chain: MGCLGNSKTEDQRNEEKAQREANKKIEKQLQKDKQVYRATHRLLLLGAGESGKSTIVKQMRILHVNGFNGEGGEEDPQAARSNSDGEKATKVQDIKNNLKEAIETIVAAMSNLVPPVELANPENQFRVDYILSVMNVPDFDFPPEFYEHAKALWEDEGVRACYERSNEYQLIDCAQYFLDKIDVIKQDDYVPSDQDLLRCRVLTSGIFETKFQVDKVNFHMFDVGGQRDERRKWIQCFNDVTAIIFVVASSSYNMVIREDNQTNRLQEALNLFKSIWNNRWLRTISVILFLNKQDLLAEKVLAGKSKIEDYFPEFARYTTPEDATPEPGEDPRVTRAKYFIRDEFLRISTASGDGRHYCYPHFTCAVDTENIRRVFNDCRDIIQRMHLRQYELL
For the molecule B1, the “activation of AC8 adenylyl cyclase activity (cAMP accumulation) by GTPγS-bound Gαs, EC50” value in test [3] worked out at 25.5 nM.

(Values after paper PMC10933263 (EMBO Reports, 2024).)
